± gives the half width of the 95% confidence interval.
Key:
[1] = folding stability dG unfold from chymotrypsin proteolysis; higher = more stable
Method in brief: (§1)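 Digests were run with trypsin and chymotrypsin at 11 concentrations in threefold dilutions, plus a no-protease condition, on designed mini-proteins in a PA-tagged cDNA display construct. The mini-proteins were under 80 residues, had no cysteine, and were kept only when AlphaFold2 dimer inter-PAE was above 15. After sequencing, Bayesian fitting of the counts gave K50, from which unfolding free energy was derived against a sequence-predicted unfolded-state K50 and a shared folded-state K50, per protease or combined.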

[2] = folding stability dG unfold from trypsin proteolysis; higher = more stable
Method in brief: as §1

[3] = folding stability dG unfold (combined trypsin and chymotrypsin); higher = more stable
Method in brief: as §1

Sequence | folding stability dG unfold [1] [kcal/mol] | folding stability dG unfold [2] [kcal/mol] | folding stability dG unfold [3] [kcal/mol]
SAVFIEVERDPGDGAYEVTIHYLIPLRPYKDPDGKQKPPVYFMIEITIRFSPNGQIRDLDIDIFPFDAPSAG [r14_246_TrROS] | 4.41 ± 0.15 | 3.53 ± 0.13 | 4.28 ± 0.37
SAVITLPDGTTVPSTVVEETETPDGVRITVRTERDGVLEIVDLYEPPGGEVTVLSTEVVPVPPGDPALESAG [r14_13_JUSTAS] | -0.00381 ± 0.062 | 0.518 ± 0.028 | 0.285 ± 0.091
SAVLRIPNPITGEVRTLTLPTEVPAVSPDGVTSFRSPENLAAAIRALPSDVKVLSVVEHPDGTVTIVVDPSA [r9_997_TrMRF] | -0.414 ± 0.15 | 0.102 ± 0.059 | -0.0685 ± 0.064
SAVPAEGMSPEEAAALAEEVREAFEAEVKAAGGPIPADTVVTVDYALEGSPVTITLTFTTPDSVSTTVASAG [r14_501_JUSTAS] | 0.57 ± 0.079 | 1.12 ± 0.045 | 0.906 ± 0.06
SAVTPISLPSETGTLYRTDTDVILVVLKDPDPSVYRIITLKKKSADIKPLDENILGELSPEEANNPELLSAG [r14_384_JUSTAS] | 0.756 ± 0.11 | 0.617 ± 0.055 | 0.742 ± 0.081
SAWIPIDSPEEAKDIAKEIADNYGLEDTKVEPMPDNYVVVKLEFEMPNENGQKRKRNITIYYDPDGKFWSAG [r14_420_TrROS] | 1.07 ± 0.083 | 0.973 ± 0.04 | 1.1 ± 0.099
SDDKNMKPVKFKVEIEEERIEENGKKYIKIEVTWPGGNTVKIWFDPDKLIITFPVRSVEDVLEEVKDLIKSA [r9_662_TrROS] | 3.52 ± 0.039 | 2.19 ± 0.064 | 3.06 ± 0.085
SDDPKDKKKPKPEITMVPIVFKIPPGDELKIEEDPNGMIEVRVPNGHWIRVWILVNPDGNILNVMIEPWPSA [r9_1195_TrROS] | 3.21 ± 0.066 | 2.01 ± 0.15 | 2.82 ± 0.23
SDIENMPPEQFVHYIREALDEERENNPGEPVRIPIKDLGDKFPGFPPSMLKDMLGLTEDDLNNGPITIRPSA [r9_525_TrROS] | -0.189 ± 0.28 | -0.193 ± 0.079 | -0.0917 ± 0.23
SDKIVKLIKKIMEEMGLPITKITDVEPGWIVIRMPNGWKIDIEIDPDDPDVIDIKWQPDPNGGMYMVIPVSA [r9_809_TrROS] | 2.65 ± 0.069 | 2.03 ± 0.078 | 2.6 ± 0.21
SDLEAVLAAIDAVPPGTVVRIRLTLPDGVPLEITFDAGKEEIKALLEELVKEHPDVPIGIEIEVFPPEELSA [r9_37_TrMRF] | 3.71 ± 0.093 | 3.38 ± 0.1 | 3.61 ± 0.081
SDPNGKPKKRRFYVMITVPHKMKPERDPDGKMEMEHKMPTVMFPFPADDLDDLRDILEPFGISVSLMPLDSA [r9_1209_TrROS] | 2.14 ± 0.066 | 1.6 ± 0.057 | 1.94 ± 0.093
SDREFEAVFLVETPEEVEALARELALPGVEVEVHVLPAPYLDPETGEPRPFLLAVVRVRVPVPPPGPGALSA [r9_962_TrMRF] | 2.56 ± 0.055 | 0.969 ± 0.044 | 2.12 ± 0.088
SDRFTATVEYPDTGKTETIELDPSHLSITVEFTGSATFRVTISYDVNGDTFTVEAEFTAPLAPVPPEAFLSA [r9_1067_TrMRF] | 2.67 ± 0.028 | 2.25 ± 0.15 | 2.51 ± 0.11
SDWKIVDIEREGNWYTITIQFKNPDGNPWMVTLYMPPNGPYRVEVYPPGDGKEREVRVPMDDIDEILDAISA [r9_91_TrROS] | 2.96 ± 0.038 | 1.33 ± 0.053 | 2.49 ± 0.11
SEAEAVTFPVPNPEDGELVADLAVARNPETGEWTVRLEHEDGKTVEVTFPEDEELPVDGLPPGLRATFTGSA [r9_1150_TrMRF] | -0.916 ± 0.7 | -0.195 ± 0.12 | -0.401 ± 0.13
SEEEVEEPEVRVEVREIRLDDLTEEERRRLRELAERLAREEPPEELPPGYRVRVEIRDGVIVSVEVEPVPSA [r9_905_TrROS_Hall] | 1.9 ± 0.075 | 1.84 ± 0.039 | 1.85 ± 0.16
SEIEIEPLTLDEPVEYRVPEGGFTITAYAAPGPLLVRVRIPGTGEEFEIAVPLGEPNWEEVAEAVVRAIRSA [r9_982_TrMRF] | 1.27 ± 0.086 | 1.759 ± 0.015 | 1.56 ± 0.058

Sequence | folding stability dG unfold [1] [kcal/mol] | folding stability dG unfold [2] [kcal/mol] | folding stability dG unfold [3] [kcal/mol]
SEINFKPVKVDKNGNFYVENETKPGLVEKLIEAIKELFPGVEITEIKEIPEPPKIEIKAKHPSGKEFTFGSA [r9_1164_TrMRF] | 0.789 ± 0.11 | 0.927 ± 0.074 | 0.825 ± 0.11
SEKLTVTLTLTVVTTETRVTYDKETGELTVETRTEVRTLTLTVTADSEEEAKRAVQELLDALEKNPELLSSA [r9_77_TrROS_Hall] | 4.94 ± 0.13 | 3.8 ± 0.14 | 4.66 ± 0.15
SEKLVIFVPPNMTVEEIVALAKKYPDKEIVIVMPPNMSEEQKERILKALRDAGLPEGVKVTIVEVEPEDLSA [r9_670_TrROS_Hall] | 3.81 ± 0.16 | 3.73 ± 0.095 | 3.85 ± 0.19
SEKRMEVEIKIPITMVVPKEMFEPDPDNGRYRFPDNGKPIRPNQVHPMPIEIKGPMPPGDAQKLLKDLLKSA [r9_165_TrROS] | -0.119 ± 0.11 | -0.347 ± 0.1 | -0.203 ± 0.16
SELAEEAAKRAREAFAEEHPGWDVLSVEVEVEKDPNNDVVTVTVKLTLRRESPEPREEVLEEEVTLTFPLKS [r1_181_JUSTAS] | 3.24 ± 0.043 | 2.14 ± 0.05 | 2.91 ± 0.067
SETVTVTVTVTVTLYRRRPDGKWVPIAELTVTVTRTVEKEDEEEARRAVREEVEDELRKLAEELGVEIEPSA [r9_356_TrROS_Hall] | 5.79 ± 0.12 | 3.94 ± 0.095 | 5.6 ± 0.15
SEVVLEVKVEVRVKRNENGELEVEVKVEVKLVELEPPEPRIELSEEEREKLKEEAEKLGLELTDEELEALSA [r9_487_TrROS_Hall] | 1.87 ± 0.15 | 1.9 ± 0.13 | 1.75 ± 0.2
SEWVKVKVEIKMPFYNGNKPMPMSIEVEYEVPPNDPGMTPEDLPPEELAKEAIEKAYDYMRKLGLPPDMFSA [r9_516_TrROS] | 2.97 ± 0.12 | 2.21 ± 0.19 | 2.74 ± 0.39
SEWVSFMFPFKFEPDDGKIRIKIKMKAPDGEPLGEHEHPVRRDGDKVEVMQMITFPLPKGAQLDKIEIEPSA [r9_292_TrROS] | 1.11 ± 0.34 | 0.778 ± 0.26 | 0.922 ± 0.24
SFFVEFGIEHNPENNYIHINFRIYEPDPNGQWRPSSSIPITIPIKIPPPPVPKIEVPEGAKDPEDAADALSA [r9_888_TrROS] | 4.43 ± 0.3 | 2.92 ± 0.2 | 3.75 ± 0.68
SFLSPGDKFKFPNGNNYRIENFDISYDPGNNNPMIEIELVPLPPPKPEDENKKDPDGKTKTENKYKYKGPSA [r9_914_TrROS] | 0.879 ± 0.5 | 0.61 ± 0.28 | 0.968 ± 0.45
SGGMEKTENGNVRPVPLPTTVVKETPPEVSPEEAKERVEKELKEKGYKNVKVTTSYDPSTNLVTITVTVESA [r9_1124_JUSTAS] | 0.624 ± 0.076 | 0.447 ± 0.071 | 0.564 ± 0.09
SGIGEMSPEEIAKRLAEELGLSGIEVSVSTEGNTLTIPVKAKDPVKNEEITITITITPENGGKIKITTAGSA [r9_1042_JUSTAS] | 0.299 ± 0.057 | 0.397 ± 0.12 | 0.444 ± 0.21
SGITPEQIEELAREIADLFPDVEIEIYPGLEPSIFDGPGAVAVIEREEGRGYITIYFPETGEPLVIEVPDSA [r9_1062_TrMRF] | 1.3 ± 0.033 | 1.5 ± 0.079 | 1.37 ± 0.2
SGKKIEIVKKILEELGIPIVKIEEVTPDRIVVEVEEGRRISIAIKPDDPDVVLIDPKPTEDGGWSSDLPDSA [r9_809_TrMRF] | 0.939 ± 0.042 | 1.26 ± 0.038 | 1.06 ± 0.12
SGMEQKVEVLRVGAPGEEAVTRFTFKFEDKEFTLEASARLPDGSLVLLDFHVYRDPEGTFRVDVVVYPGFSA [r9_255_TrMRF] | 3.27 ± 0.043 | 2.01 ± 0.069 | 2.93 ± 0.1
SGMLAPDATVTTTEIVFEKDPKTGLYYLTVKEKTVTVKPDSSGRLVLTTSPVTITDLGPLTPEEAEKLLSSA [r9_423_JUSTAS] | 2.73 ± 0.031 | 2.16 ± 0.052 | 2.51 ± 0.085
SGMLLTVATKTEESELPDGGKKKVTTTTVELSGPHSVTYTPVTTLAPDGTVPASTTTVYDTVSGETTTAPSA [r9_641_JUSTAS] | -0.2 ± 0.058 | 0.259 ± 0.032 | 0.145 ± 0.074

From the supplement of paper PMC12764529
